# Assay results taken from patent US20240043515A1 (Chugai, published 2024).
# Positions count from the first letter of the chain named. In names and notes the source's numbering stands.
# T1: hFcγRIIaH on Jurkat effector cells (human, UniProt P12318 34-317)
# T1 sequence (looked up): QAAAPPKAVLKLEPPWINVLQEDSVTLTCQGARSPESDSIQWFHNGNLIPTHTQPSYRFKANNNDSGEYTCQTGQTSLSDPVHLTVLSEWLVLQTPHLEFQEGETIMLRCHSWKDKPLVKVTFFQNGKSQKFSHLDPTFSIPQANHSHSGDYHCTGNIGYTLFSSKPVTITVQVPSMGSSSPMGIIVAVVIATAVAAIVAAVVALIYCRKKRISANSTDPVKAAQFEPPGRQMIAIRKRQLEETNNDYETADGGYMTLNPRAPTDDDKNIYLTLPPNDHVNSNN
# T2: human FcγRIIa H extracellular domain (human, UniProt P12318 34-217)
# T2 construct: extracellular domain; also called hFcγR IIa H; FcγRIIa allotype H131
# T2 sequence (looked up): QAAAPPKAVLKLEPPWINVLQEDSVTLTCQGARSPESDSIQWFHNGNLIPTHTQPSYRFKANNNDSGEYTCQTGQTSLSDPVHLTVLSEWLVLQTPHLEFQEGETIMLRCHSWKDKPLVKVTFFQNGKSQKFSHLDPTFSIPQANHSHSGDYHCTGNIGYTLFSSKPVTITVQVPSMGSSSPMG
# T3: human FcγRIIa R extracellular domain (human, UniProt P12318 34-217)
# T3 construct: extracellular domain; also called hFcγR IIa R; FcγRIIa allotype R131
# T3 sequence (looked up): T2 sequence (looked up) with H134R
# T4: human FcγRIIb extracellular domain (human, UniProt P31994 43-217)
# T4 construct: extracellular domain; also called hFcγR IIb
# T4 sequence (looked up): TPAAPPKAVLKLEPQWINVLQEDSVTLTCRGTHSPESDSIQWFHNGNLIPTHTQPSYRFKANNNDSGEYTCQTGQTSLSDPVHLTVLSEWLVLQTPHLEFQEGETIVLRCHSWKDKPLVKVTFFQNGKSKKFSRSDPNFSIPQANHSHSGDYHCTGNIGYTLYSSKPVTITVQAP
# B1: EGL-ART8 (H240-Kn461/L73-k0//H240-H1443/L73-k0) (antibody, human IgG1, kappa)
# heavy 1: QDQLVQSGAEVKKPGASVKVSCKASGFNIKDTYIQWVRQAPGQGLEWMGRIDPLRKQTKYREKFEGRVTITADTSTNTAYMELSSLRSEDTAVYYCVRSGREFDYWGQGTLVTVSSASTKGPSVFPLAPSSKSTSGGTAALGCLVKDYFPEPVTVSWNSGALTSGVHTFPAVLQSSGLYSLSSVVTVPSSSLGTQTYICNVNHKPSNTKVDKKVEPKSCDKTHTCPPCPAPEFQWGPMVFLFPPKPKDVLMISRTPEVTCVVVDVSDEEPEVKFNWYVDGVEVHNAKTKPREEQYNATYRVVSVLPVLHQDWLNGKEYKCKVSNDALPAPEEKTISKAKGQPREPQVCTLPPSRDELTKNQVSLWCLVKGFYPSDIAVEWESNGQPENNYKTTPPVLDSDGSFFLYSKLTVDKSRWQQGNVFSCSVMHEALHNHYTQKSLSLSP
# heavy 2: QDQLVQSGAEVKKPGASVKVSCKASGFNIKDTYIQWVRQAPGQGLEWMGRIDPLRKQTKYREKFEGRVTITADTSTNTAYMELSSLRSEDTAVYYCVRSGREFDYWGQGTLVTVSSASTKGPSVFPLAPSSKSTSGGTAALGCLVKDYFPEPVTVSWNSGALTSGVHTFPAVLQSSGLYSLSSVVTVPSSSLGTQTYICNVNHKPSNTKVDKKVEPKSCDKTHTCPPCPAPELLAGPSVFLFPPKPKDVLMISRTPEVTCVVVDVSHEEPEVKFNWYVDGVEVHNAKTKPREEQYNATYRVVSVLPVLHQDWLNGKEYKCKVSNDALPAPEEETISKAKGQPREPQVYTLPPSRCELTKNQVSLSCAVKGFYPSDIAVEWESNGQPENNYKTTPPVLDSDGSFFLVSKLTVDKSRWQQGNVFSCSVMHEALHNHYTQKSLSLSP
# light: DIQMTQSPSSLSASVGDRVTITCRASQDIHKYIAWYQQKPGQAPRLLIQYTSTLQPGVPSRFSGSGSGTDYTFTISSLQPEDIATYYCLQYEQLRTFGGGTKVEIKRTVAAPSVFIFPPSDEQLKSGTASVVCLLNNFYPREAKVQWKVDNALQSGNSQESVTEQDSKDSTYSLSSTLTLSKADYEKHKVYACEVTHQGLSSPVTKSFNRGEC
# notes: Kn461: L234F/L235Q/G236W/S239M/T250V/H268D/D270E/S298A/T307P/K326D/I332E + Y349C/T366W; H1443: G236A/T250V/D270E/S298A/T307P/K326D/I332E/K334E + D356C/T366S/L368A/Y407V
# B2: EGL-afucosyl (H240-G1d/L73-k_glycomab) (antibody)
# heavy: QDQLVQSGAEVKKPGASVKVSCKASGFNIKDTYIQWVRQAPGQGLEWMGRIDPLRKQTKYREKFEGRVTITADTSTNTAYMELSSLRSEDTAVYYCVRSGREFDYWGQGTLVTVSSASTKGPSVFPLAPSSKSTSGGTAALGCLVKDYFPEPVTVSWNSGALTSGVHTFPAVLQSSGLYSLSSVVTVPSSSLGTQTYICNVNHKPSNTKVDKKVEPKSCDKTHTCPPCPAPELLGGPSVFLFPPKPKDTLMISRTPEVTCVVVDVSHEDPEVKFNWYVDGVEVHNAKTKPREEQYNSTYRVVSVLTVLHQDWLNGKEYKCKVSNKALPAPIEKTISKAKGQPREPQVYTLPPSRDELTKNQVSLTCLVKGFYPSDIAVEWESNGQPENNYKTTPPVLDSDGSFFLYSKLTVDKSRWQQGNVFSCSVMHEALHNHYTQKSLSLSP
# light: B1 light
# modifications: afucosylated (fucose-deficient sugar chain) ; Afucosylated (fucose-deficient) N-glycan at Asn297 (EU) of each heavy chain; the letters cannot carry this.
# notes: Same heavy chain as EGL-G1d, produced as a fucose-deficient antibody; also called afucosylated antibody
# B3: EGL-GASDIE (H240-Kn037/L73-k0//H240-H1036/L73-k0) (antibody, human IgG1, kappa)
# heavy 1: B1 heavy 1 with F233L, Q234L, W235A, M238D, V249T, D267H, E269D, A297S, P306T, D325K
# heavy 2: B1 heavy 2 with S238D, V249T, E269D, A297S, P306T, D325K, E333K
# light: B1 light
# notes: G236A/S239D/I332E in both heavy chains; Kn037 with Y349C/T366W, H1036 with D356C/T366S/L368A/Y407V
# Legend:
# [1] = target: hFcγRIIIaV on Jurkat effector cells (human, UniProt P08637 17-254); assay: cell-based or functional assay
# Sequence of hFcγRIIIaV on Jurkat effector cells (P08637 17-254, form in doubt): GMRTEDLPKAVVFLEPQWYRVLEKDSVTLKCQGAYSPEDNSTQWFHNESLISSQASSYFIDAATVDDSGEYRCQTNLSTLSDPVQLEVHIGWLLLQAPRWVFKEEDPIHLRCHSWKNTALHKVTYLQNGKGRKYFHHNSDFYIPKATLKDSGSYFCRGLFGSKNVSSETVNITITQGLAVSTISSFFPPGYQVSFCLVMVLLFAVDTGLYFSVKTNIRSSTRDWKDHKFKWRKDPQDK
# [2] = target: T1, hFcγRIIaH on Jurkat effector cells; assay: cell-based or functional assay
# [3] = target: T5, human FcγRIa extracellular domain (human, UniProt P12314 16-292); assay: SPR; KD of G1d divided by KD of this antibody
# T5 construct: extracellular domain; also called hFcγR Ia
# T5 sequence (P12314 16-292): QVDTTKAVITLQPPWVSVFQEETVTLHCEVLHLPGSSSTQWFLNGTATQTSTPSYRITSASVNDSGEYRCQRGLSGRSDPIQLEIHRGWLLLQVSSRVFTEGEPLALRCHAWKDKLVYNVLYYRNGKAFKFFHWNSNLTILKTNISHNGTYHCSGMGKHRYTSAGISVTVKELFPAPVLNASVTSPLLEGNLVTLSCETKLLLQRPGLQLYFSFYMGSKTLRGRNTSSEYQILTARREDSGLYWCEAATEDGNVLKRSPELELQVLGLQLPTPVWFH
# Protocol: (§1) The extracellular domains of FcγRs were produced by the method described in WO2014104165. The interaction between the produced antibodies and human FcγRs was analyzed using Biacore 8K+ by the method below. For the running buffer, 50 mM Na-Phosphate, 150 mM NaCl, and 0.05% Tween20 (pH 7.4) was used, and measurement was performed at 25° C. The sensor chip used was a Series S SA chip (GE Healthcare) onto which CaptureSelect Human Fab-kappa Kinetics Biotin Conjugate (Thermo Fisher Scientific) was immobilized. An antibody of interest was captured onto this chip, and each FcγR diluted with the running buffer was allowed to interact with it. The chip was regenerated using 10 mM Glycine-HCl (pH 1.5), and repeatedly used to capture antibodies and perform measurement. The dissociation constants KD (mol/L) of each antibody for FcγRs were calculated using Biacore Insight Evaluation Software, with a steady state affinity model for the dissociation constant for FcγRIIb and a 1:1 Langmuir binding model for the dissociation constants for the other FcγRs (Table 2).
# [4] = target: T2, human FcγRIIa H extracellular domain; assay: SPR; KD of G1d divided by KD of this antibody
# Protocol: as §1
# [5] = target: T3, human FcγRIIa R extracellular domain; assay: SPR; KD of G1d divided by KD of this antibody
# Protocol: as §1
# [6] = target: T4, human FcγRIIb extracellular domain; assay: SPR; KD of G1d divided by KD of this antibody
# Protocol: as §1
# [7] = target: T6, human FcγRIIIa F extracellular domain (human, UniProt P08637 17-208); assay: SPR; KD of G1d divided by KD of this antibody
# T6 construct: extracellular domain; also called hFcγR IIIa F; FcγRIIIa allotype F158
# T6 sequence (P08637 17-208): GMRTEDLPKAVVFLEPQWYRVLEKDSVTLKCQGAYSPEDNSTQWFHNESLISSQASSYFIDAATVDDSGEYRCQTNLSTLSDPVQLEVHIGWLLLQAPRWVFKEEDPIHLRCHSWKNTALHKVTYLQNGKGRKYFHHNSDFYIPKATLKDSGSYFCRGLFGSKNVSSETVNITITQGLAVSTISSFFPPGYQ
# Protocol: as §1
# [8] = target: T7, human FcγRIIIa V extracellular domain (human, UniProt P08637 17-208); assay: SPR; KD of G1d divided by KD of this antibody
# T7 construct: extracellular domain; also called hFcγR IIIa V; FcγRIIIa allotype V158
# T7 sequence (P08637 17-208 F176V): as the sequence (P08637 17-208) above, with F160V counted along it
# Protocol: as §1
# [9] = target: T2, human FcγRIIa H extracellular domain; assay: SPR; KD for hFcγRIIb divided by KD for this FcγR
# Protocol: as §1
# [10] = target: T3, human FcγRIIa R extracellular domain; assay: SPR; KD for hFcγRIIb divided by KD for this FcγR
# Protocol: as §1
# [11] = target: T6, human FcγRIIIa F extracellular domain; assay: SPR; KD for hFcγRIIb divided by KD for this FcγR
# Protocol: as §1
# [12] = target: T7, human FcγRIIIa V extracellular domain; assay: SPR; KD for hFcγRIIb divided by KD for this FcγR
# Protocol: as §1
# [13] = target: T7, human FcγRIIIa V extracellular domain; assay: SPR (Biacore 8K+), antibody captured, FcγR as analyte, 25 C, 1:1 Langmuir model
# Protocol: as §1
# [14] = target: T4, human FcγRIIb extracellular domain; assay: SPR (Biacore 8K+), antibody captured, FcγR as analyte, 25 C, steady state affinity model
# Protocol: as §1
Binder,"EC50 of reporter gene induction (ADCC Reporter Bioassay, Hepa1-6/hEREG target cells) [1]","EC50 of reporter gene induction (ADCP Reporter Bioassay, Hepa1-6/hEREG target cells) [2]",Relative value to KD between G1d and hFcgRs [3],Relative value to KD between G1d and hFcgRs [4],Relative value to KD between G1d and hFcgRs [5],Relative value to KD between G1d and hFcgRs [6],Relative value to KD between G1d and hFcgRs [7],Relative value to KD between G1d and hFcgRs [8],A/I ratio (KD for FcγRIIb divided by KD for each FcγR) [9],A/I ratio (KD for FcγRIIb divided by KD for each FcγR) [10],A/I ratio (KD for FcγRIIb divided by KD for each FcγR) [11],A/I ratio (KD for FcγRIIb divided by KD for each FcγR) [12],Kd [13],Kd [14]
B1,1.07 ng/mL,17.1 ng/mL,3.2 times,15 times,13.2 times,2.8 times,1970 times,695 times,47.2 ratio,28.1 ratio,2350 ratio,6850 ratio,0.516 nM,
B2,,,,1.1 times,,1.8 times,,,,,,,19 nM,5650 nM
B3,3.7 ng/mL,14.9 ng/mL,6.2 times,16.4 times,24.7 times,8 times,44.7 times,15.1 times,18.2 ratio,18.6 ratio,18.9 ratio,52.6 ratio,,
